Results taken from patent US20150299301A1 (published 2015).

Target: T1, mouse serum albumin (mouse, UniProt P07724 25-608)
T1 construct: also called MSA; mouse albumin
Test: phage on blotted plasma (1/10)
Experimental: A SDS-PAGE was run for plasma (1/10 dilution) from different species (baboon, pig, hamster, human, rat. mouse and rabbit) and blotted on a nitrocellulose membrane. Phages were prepared for clones MSA 21. […] Phages were allowed to bind to the nitrocellulose blotted serum albumins and unbound phages were washed away. Binding was detected with a anti-M13 polyclonal antibody coupled to HRP. DAP was used as a substrate for detection.

T1 sequence (P07724 25-608 limits assumed): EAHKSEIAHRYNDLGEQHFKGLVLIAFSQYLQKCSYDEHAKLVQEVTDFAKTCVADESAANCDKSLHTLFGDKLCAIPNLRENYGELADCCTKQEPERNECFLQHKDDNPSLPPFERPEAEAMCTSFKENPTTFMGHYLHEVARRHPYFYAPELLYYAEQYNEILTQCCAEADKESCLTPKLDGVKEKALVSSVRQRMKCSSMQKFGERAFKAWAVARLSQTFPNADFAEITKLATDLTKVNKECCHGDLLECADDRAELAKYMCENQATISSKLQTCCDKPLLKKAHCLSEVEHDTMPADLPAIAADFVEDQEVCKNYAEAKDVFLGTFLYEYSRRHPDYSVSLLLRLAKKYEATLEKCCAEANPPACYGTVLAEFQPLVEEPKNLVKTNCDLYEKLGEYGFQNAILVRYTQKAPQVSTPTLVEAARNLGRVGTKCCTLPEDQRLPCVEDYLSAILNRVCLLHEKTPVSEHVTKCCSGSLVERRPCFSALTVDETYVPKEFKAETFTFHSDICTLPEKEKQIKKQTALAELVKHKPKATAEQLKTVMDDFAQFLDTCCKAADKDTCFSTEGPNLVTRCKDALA

B1: MSA24 (VHH)
VHH: QVQLQESGGGLVQPGNSLRLSCAASGFTFRNFGMSWVRQAPGKEPEWVSSISGSGSNTIYADSVKDRFTISRDNAKSTLYLQMNSLKPEDTAVYYCTIGGSLSRSSQGTQVTVSS
B1: binds.
